Two molecules from US6608174B1, “Radiolabeled vasoactive intestinal peptide analogs for diagnosis and radiotherapy” (Dabur Research Foundation, priority 2000, dated 2003) can be followed below.

Square brackets hold non-standard residues; d marks the D form. Ends that are not written are not given here. dPhe(4-Cl) = N[C@H](Cc1ccc(Cl)cc1)C(=O)O; Aib = CC(C)(N)C(=O)O

One test deals with VIP receptors. The test can be described thus: Displacement assay using 125I labeled VIP on human tumor cell lines. The format is binding. To be noted: for IC50: inhibition of 125I labeled VIP binding. The procedure: Peptides of the invention were assayed for biological activity in homogeneous competition binding assays using ^125I labeled VIP peptide (SEQ ID NO:1) and in heterogeneous displacement assays using either ^125I labeled VIP (10-28) fragment (Tyr-Thr-Arg-Leu-Arg-Lys-Gln-Met-Ala-Val-Lys-Lys-Tyr-Leu-Asn-Ser-Ile-Leu-Asn-NH2) (SEQ ID NO: 12) or ^125I labeled VIP (SEQ ID NO:1). The assays were performed on a variety of human tumor cell lines.
In the practice of these methods, the peptide was radioiodinated using the iodogen method. Briefly, 5 μg of the peptide in 10 μl of 50 mM PBS (pH 7.5), an appropriate amount of the radioisotope and 50 μg-100 μg iodogen were incubated at room temperature for 15-30 min with occasional mixing. Radioiodinated peptide was purified from unincorporated radioactive iodine by purification on a Sep Pak C18 cartridge, essentially following the same procedure as described for technetium labeling.
Displacement assays were performed at 4-8° C. Briefly, 50,000 cells were plated per well of a 24 well plate and allowed to adhere overnight. Before the assay, the cells were washed twice with ice cold Binding buffer (25 mM HEPES, 10 mM […] MgCl2 and 1% BSA in RPMI 1640 medium). The cells were incubated for 2-3hrs with an appropriate concentration (0.1-10 nM) of ^125I labeled VIP (SEQ ID NO:1) in the presence and absence of the cold ligand (SEQ ID NO: 2) (1 nM-10 μM). The non specific binding was ascertained using 10 μM of VIP. After incubation, the cells were washed thrice with the Binding buffer to remove the unbound peptide. The cells were lysed and counts were measured in a Gamma counter. From a comparison of the extent of binding in the presence or absence of the unlabeled peptide, a concentration was determined corresponding to inhibition of ^125I labeled VIP binding by 50%. Different tumor cell lines were assayed using the above described displacement assay: HT29 (human colorectal adenocarcinoma); PTC (human primary tumor cells adenocarcinoma); KB (human squamous cell carcinoma); 4451 (human squamous cell carcinoma); L132 (human lung carcinoma); A549 (human lung carcinoma); HBL100 (human breast carcinoma) and PA1 (human ovarian carcinoma). Cells were grown in RPMI 1640 supplemented with 10% fetal calf serum, glutamine and antibiotics using standard cell culture techniques (see Animal Cell Culture: A Practical Approach, Freshney, ed, IRL press: Oxford, UK, 1992).

Test [1] addresses VIP receptors on human tumor cell lines (human). The test can be described thus: displacement of 125I labeled VIP on PTC cells. On the technique in general: Displacement assays read how much labelled ligand stays bound in the presence of the test substance.
For test [2], the target named is low affinity (µM range), high surface expression receptor on human tumor cells (VIP receptor) (human). In words: maximal binding, 125I-SEQ ID NO:2 on KB cells.
Test [3] deals with high affinity (nM range), low surface expression receptor on human tumor cells (VIP receptor) (human). In words: maximal binding, 125I-SEQ ID NO:2 on KB cells.
The target in test [4] is low affinity (µM range), high surface expression receptor on human tumor cells (VIP receptor) (human). The test can be described thus: homologous radioligand competition, 125I-SEQ ID NO:2 on A549 cells.
The target of test [5] is VIP receptors on human tumor cell lines (human). The test can be described thus: displacement of 125I labeled VIP on HT29 cells.
Test [6] shares this target. In words: displacement of 125I labeled VIP (10-28) fragment on L132 cells.
Test [7] has the same target. The test can be described thus: displacement of 125I labeled VIP (10-28) fragment on KB cells.
The target is the same in test [8]. The test can be described thus: displacement of 125I labeled VIP (10-28) fragment on PA1 cells.
Test [9] addresses low affinity (µM range), high surface expression receptor on human tumor cells (VIP receptor) (human). The test can be described thus: homologous radioligand competition, 125I-SEQ ID NO:2 on HT29 cells.
The target of test [10] is high affinity (nM range), low surface expression receptor on human tumor cells (VIP receptor) (human). The test is described as above.
Test [11] concerns the target low affinity (µM range), high surface expression receptor on human tumor cells (VIP receptor) (human). The test can be described thus: maximal binding, 125I-SEQ ID NO:2 on HT29 cells.
Test [12] has as its target high affinity (nM range), low surface expression receptor on human tumor cells (VIP receptor) (human). The test can be described thus: maximal binding, 125I-SEQ ID NO:2 on HT29 cells.
For test [13], the target named is VIP receptors on human tumor cell lines (human). In words: displacement of 125I labeled VIP (10-28) fragment on A549 cells.
Test [14] has as its target low affinity (µM range), high surface expression receptor on human tumor cells (VIP receptor) (human). In words: maximal binding, 125I-SEQ ID NO:2 on PA1 cells (printed PAI).
The target of test [15] is high affinity (nM range), low surface expression receptor on human tumor cells (VIP receptor) (human). The test is described as above.
Test [16] deals with low affinity (µM range), high surface expression receptor on human tumor cells (VIP receptor) (human). In words: homologous radioligand competition, 125I-SEQ ID NO:2 on KB cells.
For test [17], the target named is high affinity (nM range), low surface expression receptor on human tumor cells (VIP receptor) (human). The description is as above.
The target in test [18] is VIP receptors on human tumor cell lines (human). In words: displacement of 125I labeled VIP (10-28) fragment on PTC cells.
The target is the same in test [19]. The test can be described thus: displacement of 125I labeled VIP (10-28) fragment on HBL 100 cells.
Test [20] shares this target. In words: displacement of 125I labeled VIP (10-28) fragment on HT29 cells.
In test [21] the target is low affinity (µM range), high surface expression receptor on human tumor cells (VIP receptor) (human). In words: maximal binding, 125I-SEQ ID NO:2 on L132 cells.
For test [22], the target named is high affinity (nM range), low surface expression receptor on human tumor cells (VIP receptor) (human). The test can be described thus: maximal binding, 125I-SEQ ID NO:2 on L132 cells.

One may read the IC50 as the concentration needed to halve the response being measured. Lower therefore signals higher potency. Turning to “His-Ser-Asp-Aib-Val-4-Cl-D-Phe-Thr-Asp-Asn-Tyr-Thr-Arg-Leu-Arg-Lys-Gln-Leu-Ala-Val-Lys-Lys-Tyr-Leu-Asn-Ser-Ile-Leu-Asn-NH2 (HSD[Aib]V[dPhe(4-Cl)]TDNYTRLRKQLAVKKYLNSILN-NH2; N-terminus assumed; SMILES CC[C@H](C)[C@H](NC(=O)[C@H](CO)NC(=O)[C@H](CC(N)=O)NC(=O)[C@H](CC(C)C)NC(=O)[C@H](Cc1ccc(O)cc1)NC(=O)[C@H](CCCCN)NC(=O)[C@H](CCCCN)NC(=O)[C@@H](NC(=O)[C@H](C)NC(=O)[C@H](CC(C)C)NC(=O)[C@H](CCC(N)=O)NC(=O)[C@H](CCCCN)NC(=O)[C@H](CCCNC(=N)N)NC(=O)[C@H](CC(C)C)NC(=O)[C@H](CCCNC(=N)N)NC(=O)[C@@H](NC(=O)[C@H](Cc1ccc(O)cc1)NC(=O)[C@H](CC(N)=O)NC(=O)[C@H](CC(=O)O)NC(=O)[C@@H](NC(=O)[C@@H](Cc1ccc(Cl)cc1)NC(=O)[C@@H](NC(=O)C(C)(C)NC(=O)[C@H](CC(=O)O)NC(=O)[C@H](CO)NC(=O)[C@@H](N)Cc1c[nH]cn1)C(C)C)[C@@H](C)O)[C@@H](C)O)C(C)C)C(=O)N[C@@H](CC(C)C)C(=O)N[C@@H](CC(N)=O)C(N)=O) [SEQ ID NO:2, VIP receptor antagonist, preferred peptide (Xxx = Aib)]”, the concentration for half-maximal inhibition (IC50) was determined as 7.1 nM in the test with VIP receptors (4451 cells); 4.3 nM in the test on VIP receptors (A549 cells); 5.41 nM with VIP receptors (HBL 100 cells); 2.78 nM in the test on VIP receptors (HT29 cells); 6.2 nM in the test with VIP receptors (KB cells); 6.8 nM in the test with VIP receptors (L132 cells). For the same molecule, the IC50 with VIP receptors (PA1 cells) was 7.6 nM; in the test on VIP receptors (PTC cells), 2.53 nM. In addition, in the test with VIP receptors (all cell lines of Table IV), the “displacement of binding of radiolabelled VIP to the cell lines” value is listed as “significantly displace”.

B1: VIP analog His-Ser-Asp-Aib-Val-4-Cl-D-Phe-Thr-Asp-Asn-Tyr-Thr-Arg-Leu-Arg-Lys-Gln-Leu-Ala-Val-Lys-Lys-Tyr-Leu-Asn-Ser-Ile-Leu-Asn-NH2 (SEQ ID NO: 2) (peptide)
peptide: HSD[Aib]V[dPhe(4-Cl)]TDNYTRLRKQLAVKKYLNSILN-NH2
modifications: also: 125I-labelled form (iodogen) used as tracer
The term Kd denotes the free concentration of one partner at which half of the binding sites on the other are occupied at equilibrium, for simple one-to-one binding. A lower Kd goes with higher affinity. With B1, the IC50 in test [1] was 2.53 nM; in [5], 2.78 nM; in test [6], 0.228 nM; in [7], 0.35 nM; in test [8], 0.31 nM; in [13], 0.275 nM. Further, the IC50 in test [18] stood at 0.132 nM; in [19] it was 0.236 nM; in test [20], 0.22 nM. The Bmax2 in test [2] came to 42.9 nM; in test [11], 67.2 nM; in test [14], 47.7 nM; in test [21] it was 45.8 nM. The Bmax1 came to 602 pM in test [3], 367 pM in test [12], 529 pM in test [15] and 306 pM in test [22]. In addition, the Kd in test [4] was 1530 nM; in [9], 1370 nM; in test [10] it was 3.8 nM; in [16], 1840 nM; in [17], 4.2 nM.
